Measurements from patent US20110059015A1 (CONSEJO SUPERIOR DE INVESTIGACIONES CIENTIFICAS CSIC, published 2011).

Key:
[1] = target: T1, BSA (Bos taurus, UniProt P02769); experiment: ELISA, soluble Fab on BSA coated wells
T1 construct: commercial serum albumin; also called bovine serum albumin

[2] = target: gp120 of HIV-1 MN strain (on virus) (HIV-1 (MN), UniProt P05877 32-513); experiment: cell-based or functional assay
[3] = target: T1, BSA; experiment: ELISA, soluble Fab of the shuffled HC/LC pair on BSA coated wells
[4] = target: T1, BSA; experiment: ELISA, soluble mutant Fab on BSA coated wells
[5] = target: gp120 of HIV-1 RF strain (on virus) (HIV-1 (RF), UniProt P04579 32-519); experiment: cell-based or functional assay
[6] = target: gp120 of HIV-1 SF-2 strain (on virus) (HIV-1 (SF-2), UniProt P03378 32-509); experiment: cell-based or functional assay
[7] = target: T1, BSA; experiment: ELISA, soluble Fab on BSA coated wells; remark: listed apart in the source
[8] = target: T1, BSA; experiment: ELISA, Fab titration on BSA coated wells
[9] = target: T1, BSA; experiment: ELISA, soluble mutant Fab on BSA coated wells; remark: listed apart in the source

T1 sequence (P02769 25-607 limits assumed): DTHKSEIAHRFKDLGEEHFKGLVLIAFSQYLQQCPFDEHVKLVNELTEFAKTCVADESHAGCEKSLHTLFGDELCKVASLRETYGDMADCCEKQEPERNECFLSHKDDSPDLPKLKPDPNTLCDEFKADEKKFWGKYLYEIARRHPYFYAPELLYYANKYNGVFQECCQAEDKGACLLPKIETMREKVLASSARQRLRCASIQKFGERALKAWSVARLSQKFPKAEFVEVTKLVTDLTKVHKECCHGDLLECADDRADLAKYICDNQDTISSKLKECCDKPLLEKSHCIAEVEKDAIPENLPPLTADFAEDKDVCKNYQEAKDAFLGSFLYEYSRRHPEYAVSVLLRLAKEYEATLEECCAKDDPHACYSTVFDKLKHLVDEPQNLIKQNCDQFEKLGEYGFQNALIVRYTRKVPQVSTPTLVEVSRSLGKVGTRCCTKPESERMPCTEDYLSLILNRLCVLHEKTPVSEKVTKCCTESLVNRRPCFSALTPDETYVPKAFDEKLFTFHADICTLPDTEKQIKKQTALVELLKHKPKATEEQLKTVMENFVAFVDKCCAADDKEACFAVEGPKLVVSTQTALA

B1: Fab S20 (Fab, V domains shown)
VH: LESGGGVVQPGRSLRLSCSASGFSFRDYAMHWVRQAPGKGLEWVAFIWFDGSNERYADSVKGRFTITRDNPKNTLYLQMNSLRVEDTAVYYCVRRGGSILTGFHLDYWGQGTLVTVSS
VL: ELTQSPSSLSASVGDRVTITCRASQGIRDDLGWYQQKPGKAPKRLIYAASNLQSGVPSRFSGGGSGTEFTLTISSLQPEDFATYYCLQHNSYPLTFGGGTKVEIKR
notes: also called IgG Fab S20
binding result [1]: no binding (tested: not given on the sheet)
% neutralisation of HIV-1 MN, NPA in MT-4 cells, at 20 µg/ml Fab [2]: 90%

B2: S20/S8 (Fab, V domains shown)
VH: LESGGGVVQPGRSLRLSCSASGFSFRDYAMHWVRQAPGKGLEWVAFIWFDGSNERYADSVKGRFTITRDNPKNTLYLQMNSLRVEDTAVYYCVRRGGSILTGFHLDYWGQGTLVTVSS
VL: ELTQSPSSLSASVGDRVTITCRASQGIRDDLGWYQQKPGKAPKRLIYAASNLQSGVPSRFSGGGSGTEFTLTISSLQPEDFATYYCLQHNSYPLTFGGGTKVEIKR
notes: also called S20 heavy chain paired with S8 light chain
binding result [3]: no binding (tested: not given on the sheet)

B3: mutant Fab S895K (Fab, V domains shown)
VH: LESGGGLVKPGGSLRLSCAASGFTFSSYAMHWVRQAPGKGLEWVAFIWFDGSNERYADSVKGRFTITRDNPKNTLYLQMNSLRVEDTAVYYCVRKGGSILTGFHLDYWGQGTLVTVSS
VL: ELTQSPSSLSASVGDRVTITCRASQGIRDDLGWYQQKPGKAPKRLIYAASNLQSGVPSRFSGGGSGTEFTLTISSLQPEDFATYYCLQHNSYPLTFGGGTKVEIKR
binding result [4]: no binding (tested: not given on the sheet)

B4: Fab S8 HCDR3 mutant Arg95 to Asp (Fab, V domains shown)
VH: LESGGGLVKPGGSLRLSCAASGFTFSSYAMHWVRQAPGKGLEWVAFIWFDGSNERYADSVKGRFTITRDNPKNTLYLQMNSLRVEDTAVYYCVRDGGSILTGFHLDYWGQGTLVTVSS
VL: ELTQSPSSLSASVGDRVTITCRASQGIRDDLGWYQQKPGKAPKRLIYAASNLQSGVPSRFSGGGSGTEFTLTISSLQPEDFATYYCLQHNSYPLTFGGGTKVEIKR
binding result [4]: no binding (tested: not given on the sheet)

B5: Fab S8 (Fab, V domains shown)
VH: LESGGGLVKPGGSLRLSCAASGFTFSSYAMHWVRQAPGKGLEWVAFIWFDGSNERYADSVKGRFTITRDNPKNTLYLQMNSLRVEDTAVYYCVRRGGSILTGFHLDYWGQGTLVTVSS
VL: ELTQSPSSLSASVGDRVTITCRASQGIRDDLGWYQQKPGKAPKRLIYAASNLQSGVPSRFSGGGSGTEFTLTISSLQPEDFATYYCLQHNSYPLTFGGGTKVEIKR
notes: also called IgG Fab S8; S8 Fab
% neutralisation, IRA in MT-2 cells, at 1 µg/ml Fab S8 [5]: 50%
% neutralisation, IRA in MT-2 cells, at 10 µg/ml Fab S8 [5]: > 90%
% neutralisation of HIV-1 MN, NPA in MT-4 cells, at 20 µg/ml Fab [2]: 90%
% neutralisation, IRA in MT-2 cells, at 1 µg/ml Fab S8 [2]: 50%
% neutralisation, IRA in MT-2 cells, at 10 µg/ml Fab S8 [2]: > 90%
% neutralisation, IRA in MT-2 cells, at 1 µg/ml Fab S8 [6]: 50%
% neutralisation, IRA in MT-2 cells, at 10 µg/ml Fab S8 [6]: > 90%
binding result [7]: no binding (tested: not given on the sheet)

B6: Fab S19 (Fab, V domains shown)
VH: LESGGGVVQPGRSLRLSCAASGFSFSSHGMHWVRQAPGKGLEWVAFIWFDGSNERYADSVKGRFTITRDNPKNTLYLQMNSLRVEDTAVYYCVRRGGSILTGFHLDYWGQGTLVTVSS
VL: ELTQSPSSLSASVGDRVTITCRASQGIRDDLGWYQQKPGKAPKRLIYAASNLQSGVPSRFSGGGSGTEFTLTISSLQPEDFATYYCLQHNSYPLTFGGGTKVEIKR
notes: also called IgG Fab S19
binding result [8]: no binding (tested: about 10 µg/ml)

B7: S2095 P (Fab, V domains shown)
VH: LESGGGVVQPGRSLRLSCSASGFSFRDYAMHWVRQAPGKGLEWVAFIWFDGSNERYADSVKGRFTITRDNPKNTLYLQMNSLRVEDTAVYYCVRPGGSILTGFHLDYWGQGTLVTVSS
VL: ELTQSPSSLSASVGDRVTITCRASQGIRDDLGWYQQKPGKAPKRLIYAASNLQSGVPSRFSGGGSGTEFTLTISSLQPEDFATYYCLQHNSYPLTFGGGTKVEIKR
binding result [9]: no binding (tested: not given on the sheet)

B8: mutant Fab S2095K (Fab, V domains shown)
VH: LESGGGVVQPGRSLRLSCSASGFSFRDYAMHWVRQAPGKGLEWVAFIWFDGSNERYADSVKGRFTITRDNPKNTLYLQMNSLRVEDTAVYYCVRKGGSILTGFHLDYWGQGTLVTVSS
VL: ELTQSPSSLSASVGDRVTITCRASQGIRDDLGWYQQKPGKAPKRLIYAASNLQSGVPSRFSGGGSGTEFTLTISSLQPEDFATYYCLQHNSYPLTFGGGTKVEIKR
binding result [9]: no binding (tested: not given on the sheet)

B9: Fab S8 HCDR3 mutant Arg95 to Gly (Fab, V domains shown)
VH: LESGGGLVKPGGSLRLSCAASGFTFSSYAMHWVRQAPGKGLEWVAFIWFDGSNERYADSVKGRFTITRDNPKNTLYLQMNSLRVEDTAVYYCVRGGGSILTGFHLDYWGQGTLVTVSS
VL: ELTQSPSSLSASVGDRVTITCRASQGIRDDLGWYQQKPGKAPKRLIYAASNLQSGVPSRFSGGGSGTEFTLTISSLQPEDFATYYCLQHNSYPLTFGGGTKVEIKR
binding result [4]: no binding (tested: not given on the sheet)
